Experiments:
[1] = Water activity (Aqua lab water activity meter); format: physicochemical; details: REV, 10% SMP, 10 Torr (200 W)
Experimental: (§1) The puffed foam material was removed from the drier and packed in polyethylene bags. The final moisture content and water activity of the dried foams were measured after 24 hours of drying (allow the sample to equilibrate) using air oven method and Aqua lab water activity meter (model series 3, Decagon Device Inc., Washington, USA).
as §1, with “structure” for “material”
The water activity of the samples before microwave vacuum drying, immediately after drying and during storage was measured (Aqualab R Model series 3, Decagon Devices, Inc., Washington, USA).

[2] = cited from earlier work
[3] = test system: Micrococcus luteus cell wall suspension; assay: Lysozyme activity, turbidity assay; format: biochemical; details: lysozyme-chitosan 1:3 pastes; for lysozyme enzymatic activity after drying: t-REV 300 Watts, 30 Torr, 10 min
Experimental: Lysozyme activity was determined by the turbidity assay method using freeze-dried Micrococcus luteus cell wall suspension.

| Substance | aw [1] | retention during pelleting ([2]; encapsulated with hydrogenated vegetable oil and calcium stearate) | loss after the feed pelleting process ([2]; unprotected lysozyme, pelleting at 195° F.) | increase in lysozyme activity after t-REV ([3]; before versus after t-REV) | lysozyme enzymatic activity after drying [3] | lysozyme enzymatic activity after drying ([3]; listed as Lysozyme) |
| --- | --- | --- | --- | --- | --- | --- |
| Bifidobacterium longum | 0.36 ± 0.01 |  |  |  |  |  |
| lysozyme: Lysozyme extracted from chicken egg-white (Neova Technologies Inc.) |  | up to 75% | More than 50% | about 10% | no enzymatic activity loss | retained its activity |

Source: patent publication US8877469B2, “Method of drying biological material” (Enwave Corporation, priority 2004, dated 2014)
